The results in this text go back to the DeepSol protein solubility set.

The data set in a line: soluble on expression in E. coli; label from the status in PepcDB or PDB records.
In the case of “MGHHHHHHSHMQDGFLTVSIIDATNNRPIQNAVVNIYSMSNGSQSSSTLYQNLRSNESGQVTGLVLPAPDVDYSLQPSDVRPYSQYIVEAIADGYETVVIEGTQLLATIEARQGVPMSPRTRSKRSFSRQSELIFDIGEHTLYGTYPPKIPESNLKPLPPPTGFVVLDNPVVPEFIVVHDGLPEDSSAPNYWIPFKEYIKNIASSEIYSTWPEQTIYANVIAIISFTLNRVFTEWYRNKGYNFTITSTTAYDHKFINNRNLFEPINVVVDAIFNTFIKRPPTSRQPLLAQYCDGQKSQCPDQMTQWGSKDLGDQGYDYESILRYFYGDEIVFERAPIVSGVPVSFPGTTLQVGSSGQYVRTIQNQLNAISNSYPAVPKVIEDGIYGTDTENAVKIFQGIFGLPQSGVVDFKTWYEISRVYVATTRIASLNPLI”, the “soluble on expression in E. coli” value is “soluble”.
With “MGHHHHHHSHMQWSKEEEAAARKKVKENSAVRVLLEEQVKYEREASKYWDTFYKIHKNKFFKDRNWLLREFPEILPVDQKPEEKARESSWDHVKTSATNRFSRMHCPTVPDEKNHYEKSSGSSEGQSKTESDFSNLDSEKHKKGPMETGLFPGSNATFRILEVGCGAGNSVFPILNTLENSPESFLYCCDFASGAVELVKSHSSYRATQCFAFVHDVCDDGLPYPFPDGILDVILLVFVLSSIHPDRTLFI”, the “soluble on expression in E. coli” value was “not soluble”.
On to “MGHHHHHHSHMSDIYQHFRKDERAFIDQALEWKRIVQEQYRMKLTDFLDPREQVILSAVTGQADVGLAFSGGYDRAERKRAILFPEYITPEESDFELQAFNVRYADKFVSVDHRSLLGALMGIGLKRQKFGDIVFSETAVQLIVSADTADFVAAQLTQAGKAAVSLEKIDLSDLNIPAVDVEIRDDTVSSLRLDAVCASMSRQSRQKSQTLVKNGLVKVNWKVVEDPSYIVAEGDMLSIRGFGRCSLTKIEGKTKKDKWRVTFERQK”, for which the “soluble on expression in E. coli” value was “not soluble”.
As for “MGHHHHHHSHMSGSAMQEGLSPNHLKKAKLMFFYTRYPSSNMLKTYFSDVKFNRCITSQLIKWFSNFREFYYIQMEKYARQAINDGVTSTEELSITRDCELYRALNMHYNKANDFEVPERFLEVAQITLREFFNAIIAGKDVDPSWKKAIYKVICKLDSEVPEIFKSPNCLQELLHE”, the “soluble on expression in E. coli” value is reported as “soluble”.
The same measure for “MGHHHHHHSHMSPVLTQHVSQPITLDEQTQKMKRHLLQDIRRSAYVYRVDCGGCNACEIEIFAAITPVFDAERFGIKVVSSPRHADILLFTGAVTRAMRMPALRAYESAPDHKICVSYGACGVGGGIFHDLYSVWGGSDTIVPIDVWIPGCPPTPAATIHGFAVALGLLQQKIHAVDYRDPTGVTMQPLWPQIPPSQRIAIEREARRLAGYRQGREICDRLLRHLSDDPTGNRVNTWLRDADDPRLNSIVQQLFRVLRGLHD”: “not soluble”; for “MGHHHHHHSHMSSRGHSTLPRTLMAPRMISEGDIGGIAQITSSLFLGRGSVASNRHLLQARGITCIVNATIEIPNFNWPQFEYVKVPLADMPHAPIGLYFDTVADKIHSVSRKHGATLVHCAAGVSRSATLCIAYLMKFHNVCLLEAYNWVKARRPVIRPNVGFWRQLIDYERQLFGKSTVKMVQTPYGIVPDVYEKESRHLMPYWGI”: “not soluble”; for “MGHHHHHHSHMTQDRPLLAVQEALKKCFPVVEEQQGLWQSALRDCQPLLSSLSNLAEQLQAAQNLRFEDVPALRAFPDLKERLRRKQLVAGDIVLDKLGERLAILLKVRDMVSSHVERVFQIYEQHADTVGIDAVLQPSAVSPSVADMLEWLQDIERHYRKSYLKRKYLLSSIQWGDLANIQALPKAWDRISKDEHQDLVQDILLNVSFFLEE”: “not soluble”.
Consider “MGHHHHHHSHMTSELDIFVGNTTLIDEDVYRLWLDGYSVTDAVALRVRSGILEQTGATAAVLQSDTMDHYRTFHMLERLLHAPPKLLHQLIFQIPPSRQALLIERYYAFDEAFVREVLGKKLSKGTKKDLDDISTKTGITLKSCRRQFDNFKRVFKVVEEMRGSLVDNIQQHFLLSDRLARDYAAIVFFANNRFETGKKKLQYLSFGDFAFCAELMIQNWTLGAVGEAPTDP”, for which the “soluble on expression in E. coli” value is reported as “not soluble”.
As to “MGHHHHHHSHMYAAGLGMLEPTKEPLKPLSAAEKIASIGQTATMSPDMNTCTSDQFQESLPPVQFDWSSSGLTNPLDGVDPELYELTTSKLEISTSSLKVTDAFARLMSTVEKTSTSTSRKPKREEHLSEEAIKVIAGLPDLTFMHAKVLMFPATLTPSTSSQEKADG”, the “soluble on expression in E. coli” value is recorded as “not soluble”.
For the sequence “MGHHHHHHSHMYFFSKHPEASIQAVFSDAQMHIWALEGLSHLVAASFTEDRFGVVQTTLPAILNTLLTLQEAVDKYFKLPHASSKPPRISGSLVDTSYKTLRFAFRASLKTAIYRITTTFGEHLNAVQASAEHQKRLQQFLEFKE”, the “soluble on expression in E. coli” value is listed as “soluble”.
“MGHHHHHHSHSSPEREITLVNLKKDAKYGLGFQIIGGEKMGRLDLGIFISSVAPGGPADLDGCLKPGDRLISVNSVSLEGVSHHAAIEILQNAPEDVTLVISQPKEKISKVPSTPVHLTNEMKNYMKKSSYMQDSAIDSSSKDHHWSRGTLRHISENSFGPSGGLREGSLSSQDSRTESASLSQSQVNGFFASHLGDQ”: the “soluble on expression in E. coli” value is listed as “not soluble”.
In the case of “MGHHHHHHSHSTKDRKIIPLKMCFAARNLSMPDLENRLIELHSPDSRNTLILRCKDTATAHSWFVAIHTNIMALLPQVLAELNAMLGATSTAGGSKEVKHIAWLAEQAKLDGGRQQWRPVLMAVTEKDLLLYDCMPWTRDAWASPCHSYPLVATRLVHSGSGCRSPSLGSDLTFATRTGSRQGIEMHLFRVETHRDLSSWTRILVQGCHAAAEL”, the “soluble on expression in E. coli” value was “not soluble”.
For the sequence “MGHHHHHHSHTQDKNYEDELTQVALALVEDVINYAVKIVEEERNPLKNIKWMTHGEFTVEKGLKQIDEYFSKCVSKKCWAHGVEFVERKDLIHSFLYIYYVHWSISTADLPVARISAGTYFTMKVSKTKPPDAPIVVSYVGDHQALVHRPGMVRFRENWQKNLTDAKYSFMESFPFLFNRV”, the “soluble on expression in E. coli” value is given as “not soluble”.
Regarding “MGHPETTKFHHLSTKVTISVPEEECYGSTNRTSFNGEDIEEVLEAILKSGMKLKMEKSNFGHAKIKFLGYIVLEEGIQTDPKTIKAIAKFPQPENVTDVRKFIGFALY”, the “soluble on expression in E. coli” value was “not soluble”.
Consider “MGIRVVFERPQGGERAVLVQLALPGVDADKALAEFEELALSAKAEVLDCVLGARATPDAKYYVGKGKAEEIAHLVNMLDADLVLVNHELSPSQERNLERLFGCRVVDRSGLILDIFAQRARTFEGKLQVELAQLQHLSTRLIRGWTHLERQKGGIGLRGPGETQLETDRRLLRERIRYINKRLEKVRCSRDQNRQARRKASMPTVSLVGYTNAGKSTLFNVLTGEHTYVADQLFATLDPTMRKLELPGSSAAILADTVGFIRDLPHHLVEAFRATLEETQQADLLLHVIDISDPNWRETVFEVQKVLDELKVNNIPVIQVFNKIDLQEGWQPKIDYTEDSCKVWLSATTGAGLDLLKEAIATQLHGMILIEDIVIKPDQAKLRAQLYQLGAVLKESVDENGDWLMKIRITADQKRRLLSAAALEHHHHHH”, for which the “soluble on expression in E. coli” value is recorded as “not soluble”.
Regarding “MGISTFFLSVTLFTVNRTCDLLTPPPWYPITVKNTHHTSRHRSIFFILSVMIGKGTREDVQLSLSSLFQGVVMIVGQNPQAPSDLGIEGGERAQGQNAHSVHGPGLQTERGGSQLQMVGHPLRELLEHHHHHH”, the “soluble on expression in E. coli” value was “not soluble”.
For “MGKEQFREADKALKVVGVKFAPGDCEFMRQTAHVPIFNNKLYEDVEGKLQPANYGPLDPKMGVSTKTGTCSTCGLGLTDCVGHFGYFDLDVPVFHIGFFKLTIQLLQCICKNCSSILLTPEQHRVFSRQVMNPNLDYLHRKALHKRIVAACKKGSTCSHCGLKNGTVKKAVGAVLKIAFASPVSVDELGKFATMFSSNQEVGDHVRKMKFTLLNPLFVQKLFSNIKEGDIPVLMVRSGEEKHPNDLLLTRMPVPPVCIRPSVVSEVKAGTTEDDVTMKLMEIMLTNDVLKKHKRDGAPSKTLFETWEHLQIQCALYINSEMSGLPPDMQPKRAMRAFTQRLKGKQGRFRGNLCGKRVDFSGRTVISPDPNLRIDQVGVPIHVAMTLTFPEIVNASNIEKMRQLVINGSDVHPGANYLVEKKTGNKKLLKYGKRDELAKNLRMGDTIERHLDDNDVVLFNRQPSLHKISIMSHRAKVMPGRTFRFNECACTPYNADFDGDEMNLHLPQTYEAKAEASELMNVKNNLITPRSGEPLVAAIQDFITGGYLLTHKDTFLPRAEVYRFAAALIDASAKKQTKIRIPPPAIRRPVELWTGKQLIELIIRPDKGSDVSLNLTAKNKSYTGNLELCSKDSYVIIRNSVLLAGCLDKSLLGSSSKVNIFYMLMRDYGEDAAVDAMWRLARMAPVFLSNRGFSIGIGDVRPSEQLLREKGQLVDNGYSKCSQYIKELEEGKLKAQPGCTEEETLESIILRELSTIRDHAGQVCLRNLSKYNAPLTMAVCGSKGSFINISQMIACVGQQAISGHRPPDGFEERSLPHFERKKKTPEAKGFVANSFYSGLTPTEFFFHTMGGREGLVDTAVKTAETGYMQRRLVKCLEDLCASYDGTVRSSVGDVIEFVFGEDGLDPAMMEAKDGSVVDFTHVLEHAKNIQTTKEQPIPVDKLDEVLKAEIQKKFKGKYVHFADKLSEYITQTEIKKSKKWQNGKAHCGNHETADLKTKESCKICKNLEAYKTSLLANSCLTKTQLCSFIELCYYKVARAITEPGTAVGAIAATSIGEPSTQMTLKTFHFAGVASMNITQGVPRIKEIINAVKTISTPIITAALLDPYDESLARRVKARIEKTTLGEICDYIEEVYLPDDYFLLVKLNSKRIRLLQLEVCMESISYAIATSKVCPQMRGCKIVAHGKTMMAIRPPSTSKLSKTMTMQILKYSLANVVVKGIPSVNRCVIHADEKKGDFYSLLVEGTDFRSVLSSVGVDPRKTNFNNALVVADVLGIEAARSCIINEIIATMDAHGIGLDRRHVMLLADVMTYRGEVLGITRNGLVKMKDSVLLLASFEKTMDHLFEAAFFSQRDVIHGVSECIIMGTPMTVGTGTFKLMQKYDKKAVLKQNSPIFERLNVTL”, the “soluble on expression in E. coli” value is listed as “not soluble”.
For “MGKFISGSIVAILTDQIEESTACNLKHLLRNDPLFKPLIQTNVHKKRSAYEIIGVHTCEENEPCRIGRTRSCLCQEDFVCDKTPANKNVHLCTKLGYFRLFEANKK”, the “soluble on expression in E. coli” value was “not soluble”.
In the case of “MGKGVRDPGSDGSLRRKELAMIKVEDMMTRHPHTLLRTHTLNDAKHLMEALDIRHVPIVDANKKLLGIVSQRDLLAAQESSLQRSAQGDSLAFETPLFEVMHTDVTSVAPQAGLKESAIYMQKHKIGCLPVVAKDVLVGIITDSDFVTIAINLLELQEESEPDELDEEQ”, the “soluble on expression in E. coli” value was “not soluble”.
As to “MGKIGIFFGTDSGNAEAIAEKISKAIGNAEVVDVAKASKEQFNSFTKVILVAPTAGAGDLQTDWEDFLGTLEASDFANKTIGLVGLGDQDTYSETFAEGIFHIYEKAKAGKVVGQTSTDGYHFEASKAVEGGKFVGLVIDEDNQDDLTDERISKWVEQVKGSFA”, the “soluble on expression in E. coli” value is “soluble”.
